Patent US20260055201A1 (SHENGHE CHINA BIOPHARMACEUTICAL, published 2026)

T1: Human TNFR2 mFc (manufacturer: Kaixia, CAT: TN-HM3R2) (human, UniProt P20333 23-257)
T1 construct: treated as one molecule; also called Human TNFR2 mFC (KaKa, CAT: TNF-HM3R2); human TNFR2 mFC protein; not shown: mFc part
T1 sequence (looked up): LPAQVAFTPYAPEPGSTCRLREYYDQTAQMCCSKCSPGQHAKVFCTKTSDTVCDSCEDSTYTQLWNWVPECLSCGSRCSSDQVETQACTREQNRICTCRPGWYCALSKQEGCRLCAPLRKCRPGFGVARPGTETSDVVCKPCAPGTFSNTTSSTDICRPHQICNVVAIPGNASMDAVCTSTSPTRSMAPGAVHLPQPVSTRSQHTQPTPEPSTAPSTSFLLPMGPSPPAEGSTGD


Experiments:
[1] = target: T1, Human TNFR2 mFc (manufacturer: Kaixia, …); assay: bridging ELISA: human TNFR2 mFc coated, antibody titrated, then human 4-1BB His 0.3 ug/mL, HRP anti-His detection, OD450
Protocol: (§1) The coating solution was poured off. Each well was washed with 1×PBST at 300 μL, washed 4 times with a plate washer, and patted dry on a flat paper. It was blocked with 3% skim milk powder at 300 μL/well, and incubated at 37° C. for 1 h. The blocking solution was poured off, washed 4 times with a plate washer, and patted dry on a flat paper. […] Starting at 50 nM, which was used as the initial concentration for 3-fold dilution, a total of 10 gradients were diluted, and a blank well was set up and only the diluent was added. It was incubated at 37° C. for 1 h at 100 μL/well. The liquid in the well was discarded, washed 4 times with a plate washer, and patted dry on a flat paper. Human 4-1BB His (manufacturer: Acro, CAT: 41B-H5258, LOT: 198-2146F1-W6) was diluted to 0.3 μg/mL, 100 μL was added to each well, and incubated at room temperature for 1 h. […] It was washed 6 times with a plate washer, and patted dry on a flat paper. TMB color developing solution was added at 100 μL/well, and wrapped with aluminum foil. Color development was performed at 37° C. in the dark for 8 min. Termination solution 1M HCl was added to terminate the color development reaction at 100 μL/well. Readings were taken at 450 nm on an ELISA reader.

[2] = target: T2, Human 4-1BB His (manufacturer: Acro, CAT: 41B-H5258) (human, UniProt Q07011 24-186); assay: ELISA, human 4-1BB His coated at 0.2 ug/mL, anti-human IgG detection, OD450
T2 construct: Bought protein; also called human 4-1BB protein; 4-1BB protein; not shown: His tag
Protocol: The coating solution was poured off. Each well was washed with 1×PBST at 300 μL, washed 4 times with a plate washer, and patted dry on a flat paper. It was blocked with 3% skim milk powder at 300 μL/well, and incubated at 37° C. for 1 h. The blocking solution was poured off, washed 4 times with a plate washer, and patted dry on a flat paper. Negative control and positive control were set up. […] The positive control and antibody were diluted to 10 μg/mL with 3% skim milk powder as the starting concentration, and then diluted by 3-fold gradient (11 gradients in total), and a blank well was set up and only the diluent was added. It was incubated at 37° C. for 1 h at 100 μL/well. The liquid in the well was discarded, washed 4 times with a plate washer, and patted dry on a flat paper. […] It was washed 6 times with a plate washer, and patted dry on a flat paper. TMB color developing solution was added at 100 μL/well, and wrapped with aluminum foil. Color development was performed at 37° C. in the dark for 8 min. Termination solution 1M HCl was added to terminate the color development reaction at 100 μL/well. Readings were taken at 450 nm on an ELISA reader.

[3] = target: T3, Human 4-1BB Fc (manufacturer: Acro, CAT: 41B-H5258) (human, UniProt Q07011 24-186); assay: bridging ELISA: human 4-1BB Fc coated, antibody titrated, then human TNFR2 His 0.3 ug/mL, HRP anti-His detection, OD450
T3 construct: not shown: Fc part
Protocol: as §1, with “paper.” for “paper. Human 4-1BB His (manufacturer: Acro, CAT: 41B-H5258, LOT: 198-2146F1-W6) was diluted to 0.3 μg/mL, 100 μL was added to each well, and incubated at room temperature for 1 h.”

T3 sequence (Q07011 24-186 limits assumed): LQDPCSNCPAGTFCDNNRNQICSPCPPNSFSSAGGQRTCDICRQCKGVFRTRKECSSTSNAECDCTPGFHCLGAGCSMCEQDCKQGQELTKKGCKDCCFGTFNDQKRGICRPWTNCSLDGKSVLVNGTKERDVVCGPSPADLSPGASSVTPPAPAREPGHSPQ
T2 sequence (Q07011 24-186 limits assumed): as above

| EC50 (read off the curve) [1] [nM] | EC50 (read off the curve) [2] [nM] | EC50 (read off the curve) [3] [nM] | Binder |
| --- | --- | --- | --- |
| ~0.06 | ~0.1 | – | TB-C1 (bispecific antibody, human IgG1, kappa, also called antibody TB-C1) light: DIQMTQSPSSLSASLGDRVTISCSASQGISNYLNWYQQKPDGTVKLLIYYTSTLHSGVPSRFSGSGSGTDYTLTISSLQPEDIATYYCQQYSKLPWTFGGGTKLEIKRTVAAPSVFIFPPSDEQLKSGTASVVCLLNNFYPREAKVQWKVDNALQSGNSQESVTEQDSKDSTYSLSSTLTLSKADYEKHKVYACEVTHQGLSSPVTKSFNRGEC heavy: not shown |
| – | – | ~0.6 | TB-A (bispecific antibody, human IgG1, kappa, also called antibody TB-A) light: DIQMTQSPSSLSASLGDRVTISCSASQGISNYLNWYQQKPDGTVKLLIYYTSTLHSGVPSRFSGSGSGTDYTLTISSLQPEDIATYYCQQYSKLPWTFGGGTKLEIKRTVAAPSVFIFPPSDEQLKSGTASVVCLLNNFYPREAKVQWKVDNALQSGNSQESVTEQDSKDSTYSLSSTLTLSKADYEKHKVYACEVTHQGLSSPVTKSFNRGEC heavy: not shown |
